In PMC7019770:
Residue numbers refer to the chain shown, from its start. In names and notes the source's numbering stands.

Target: Mab2-5G2, monoclonal anti-idiotypic antibody recognizing an antibody that specifically interacts with PRRSV glycoprotein 5 (GP5)
Experiment: ELISA
Settings: chain shown with the change; Mab2-5G2 as plate-coating protein; anti-PRA rabbit serum for detection; parent: est. 1.6; read off a plot

B1: PRA, C-terminal domain of MYH9 (recombinant, wild type) K1673A (protein)
chain: MRELEDTRASREEILAQAKENEAKLKSMEAEMIQLQEELAAAERAKRQAQQERDELADEIANSSGKGALALEEKRRLEARIAQLEEELEEEQGNTELVNDRLKKANLQIDQINTDLNLERSHAQKNENARQQLERQNKELKVKLQEMEGTVKSKYKASIAALEAKIAQLEEQLDNETKERQAACKQVRRAEKKLKDVLLQVDDERRNAEQYKDQADKASTRLKQLKRQLEEAEEEAQRANASRRKLQRELEDATETADAMNREVSSLKNKLRRGDLPFVVPRRMGRKGAGDCSDEEVDGKADGAEAKAAE
- response: 0.4 OD450

B2: PRA, C-terminal domain of MYH9 (recombinant, wild type) E1679A (protein)
chain: B1 chain with A23K, E29A
- response: 0.36 OD450

B3: PRA, C-terminal domain of MYH9 (recombinant, wild type) E1670A (protein)
chain: B1 chain with E20A, A23K
- response: 0.46 OD450

B4: PRA, C-terminal domain of MYH9 (recombinant, wild type) E1670A; K1673A; E1679A; I1683A (protein)
chain: B1 chain with E20A, E29A, I33A
- response: 0.41 OD450

B5: PRA, C-terminal domain of MYH9 (recombinant, wild type) I1683A (protein)
chain: B1 chain with A23K, I33A
- response: 0.61 OD450
